The target in this experiment is HLA-A*02:01 (Homo sapiens, UniProt P04439, D140Y/D185E/D98H/E176V/E277Q/G131W/G231S/I119V/I121R/I166T/I218V/L300P/L318F/N151K/N90K/P208A/P217A/Q86G/Q94H/R138H/R169H/T345S). In words: MHC binding assay (UV-ligand exchange, ELISA, peptide exchange yield). The conditions noted are these: binding of HLA-class I restricted peptides to HLA-A*02:01. In short, it runs like this:
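Peptide–HLA-A*02:01 complexes made by UV-ligand exchange of a UV-cleavable peptide for the test peptide. Exchange yield measured by ELISA: 100-fold diluted monomers captured on streptavidin, 1 h at 37° C., detected with HRP anti-β2m and TMB, absorbance at 450 nm.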
(ELISA stands for enzyme-linked immunosorbent assay.)

“240 (ILLEQAFYL; listed as Homo sapiens) [compound 240]”: the “Peptide exchange (MHC class I binding score, peptide exchange yield)” value (“Peptide exchange” below) is reported as “″+++″ (≥50% = +++)”.
Next, “305 (SIANFSEFYV; listed as Homo sapiens) [compound 305]”: “″++++″ (≥75% = ++++)”; “428 (KLGHTDILVGV; listed as Homo sapiens) [compound 428]”: “″++″ (≥20% = ++)”; “244 (SLFGGTEITI; listed as Homo sapiens) [compound 244]”: “″+++″ (≥50% = +++)”.
For “387 (ALFQATAEV; listed as Homo sapiens) [compound 387]”, the “Peptide exchange” value was “″++++″ (≥75% = ++++)”.
Then “127 (KIGDEPPKV; listed as Homo sapiens) [compound 127]”, with “″++″ (≥20% = ++)”; and “125 (VQIHQVAQV; listed as Homo sapiens) [compound 125]”, with “″+++″ (≥50% = +++)”; and “490 (FLLQHVQEL; listed as Homo sapiens) [compound 490]”, with “″+++″ (≥50% = +++)”.
“5 (HLTEVYPEL; listed as Homo sapiens) [compound 5]”: the “Peptide exchange” value is reported as “″+++″ (≥50% = +++)”.
Next, “607 (RLYSGISGLEL; listed as Homo sapiens) [compound 607]”: “″+++″ (≥50% = +++)”; “12 (SLWPDPMEV; listed as Homo sapiens) [compound 12]”: “″+++″ (≥50% = +++)”.
Then “140 (YMDAPKAAL; listed as Homo sapiens) [compound 140]”, with “″++″ (≥20% = ++)”.
Next, “159 (GLVGNPLPSV; listed as Homo sapiens) [compound 159]”: “″++++″ (≥75% = ++++)”.
In the case of “274 (SLLFSLFEA; listed as Homo sapiens) [compound 274]”, the “Peptide exchange” value is “″++″ (≥20% = ++)”.
Then “264 (SLQEQLHSV; listed as Homo sapiens) [compound 264]”, with “″+++″ (≥50% = +++)”.
Regarding “615 (VLPPDTDPA; listed as Homo sapiens) [compound 615]”, the “Peptide exchange” value is “″++″ (≥20% = ++)”.
On to “315 (YLQDVVEQA; listed as Homo sapiens) [compound 315]”, for which the “Peptide exchange” value is “″+++″ (≥50% = +++)”.
Next, “185 (FLIDDKGYTL; listed as Homo sapiens) [compound 185]”: “″++″ (≥20% = ++)”; “238 (YLISFQTHI; listed as Homo sapiens) [compound 238]”: “″+++″ (≥50% = +++)”; “201 (RLVDYLEGI; listed as Homo sapiens) [compound 201]”: “″+++″ (≥50% = +++)”.
Consider “635 (SLDSTLHAV; listed as Homo sapiens) [compound 635]”, for which the “Peptide exchange” value was “″+++″ (≥50% = +++)”.
Next, “505 (SLAPGDVVRQV; listed as Homo sapiens) [compound 505]”: “″++″ (≥20% = ++)”.
Next, “484 (SLIEKVTQL; listed as Homo sapiens) [compound 484]”: “″+++″ (≥50% = +++)”; “171 (LLLPLQILL; listed as Homo sapiens) [compound 171]”: “″+++″ (≥50% = +++)”; “288 (NLINEINGV; listed as Homo sapiens) [compound 288]”: “″+++″ (≥50% = +++)”.
Then “145 (FLATSGTLAGI; listed as Homo sapiens) [compound 145]”, with “″++″ (≥20% = ++)”; and “426 (RLADKSVLV; listed as Homo sapiens) [compound 426]”, with “″+++″ (≥50% = +++)”; and “359 (YLLPESVDL; listed as Homo sapiens) [compound 359]”, with “″+++″ (≥50% = +++)”.
As to “326 (FLPEALDFV; listed as Homo sapiens) [compound 326]”, the “Peptide exchange” value was “″+++″ (≥50% = +++)”.
Next, “214 (FLLDLDPLLL; listed as Homo sapiens) [compound 214]”: “″+++″ (≥50% = +++)”; “474 (YLDPALELGPRNV; listed as Homo sapiens) [compound 474]”: “″+++″ (≥50% = +++)”.
Regarding “136 (YLADPSNLFVV; listed as Homo sapiens) [compound 136]”, the “Peptide exchange” value is “″+++″ (≥50% = +++)”.
In the case of “64 (YAAPGGLIGV; listed as Homo sapiens) [compound 64]”, the “Peptide exchange” value is listed as “″++″ (≥20% = ++)”.
Next, “22 (IMEENPGIFAV; listed as Homo sapiens) [compound 22]”: “″+++″ (≥50% = +++)”; “73 (NIFDLQIYV; listed as Homo sapiens) [compound 73]”: “″+++″ (≥50% = +++)”.
Next, “335 (YSLSSVVTV; listed as Homo sapiens) [compound 335]”: “″+++″ (≥50% = +++)”.
Next, “26 (ALLELAEEL; listed as Homo sapiens) [compound 26]”: “″+++″ (≥50% = +++)”; “386 (ILFRYPLTI; listed as Homo sapiens) [compound 386]”: “″+++″ (≥50% = +++)”.
For “273 (NLFQSVREV; listed as Homo sapiens) [compound 273]”, the “Peptide exchange” value is “″++″ (≥20% = ++)”.
With “383 (ALLELENSVTL; listed as Homo sapiens) [compound 383]”, the “Peptide exchange” value was “″+++″ (≥50% = +++)”.
Take “405 (ALYDVFLEV; listed as Homo sapiens) [compound 405]”: the “Peptide exchange” value was “″++″ (≥20% = ++)”.
Next, “543 (GLLPTPITQQASL; listed as Homo sapiens) [compound 543]”: “″+++″ (≥50% = +++)”; “96 (YIFTDNPAAV; listed as Homo sapiens) [compound 96]”: “″+++″ (≥50% = +++)”; “590 (SLIEKLWQT; listed as Homo sapiens) [compound 590]”: “″++″ (≥20% = ++)”.
On to “166 (YLNHLEPPV; listed as Homo sapiens) [compound 166]”, for which the “Peptide exchange” value is on record as “″+++″ (≥50% = +++)”.
Next, “503 (SLNHFTHSV; listed as Homo sapiens) [compound 503]”: “″+++″ (≥50% = +++)”.

The values are drawn from patent publication US10227388B2, “Peptides and combination of peptides for use in immunotherapy against non-small cell lung cancer and other cancers” (immatics biotechnologies GmbH, priority 2015, dated 2019).
